Target: PhiKo endolysin (Thermus thermophilus HB27 bacteriophage phiKo)
Test: AUC; sedimentation velocity, 50,000 rpm, 4°C, 20 mM MES, 150 mM NaCl, pH 6.0, in the absence or presence of 20 mM DPC detergent; PhiKo endolysin 1.2 mg/mL; continuous c(s) distribution (SEDFIT); monomer to dimer

percent of the signal in the dimer peak (with 20 mM DPC): 15%
percent of the signal in the dimer peak (without DPC): 2.3%
stoichiometry N: 2
Substance: PhiKo endolysin (enzyme)
